How the values were obtained:
[1] = biological target: T1, Lupus La protein (La) (Homo sapiens, UniProt P05455 1-408); test: EMSA; EMSA: 1 nM RNA, La 250 pM-2 uM; 25 mM Tris pH 8, 100 mM KCl, 1.5 mM MgCl2, 0.2 mM EGTA, 0.05% NP-40, 50 ug/ml heparin; 30 C 30 min, then ice 10 min; 6% gel at 4 C; Hill fit; conditions: protein: recombinant; tags: N-terminal 6xHis; label: 5' IRDye800CW
T1 sequence: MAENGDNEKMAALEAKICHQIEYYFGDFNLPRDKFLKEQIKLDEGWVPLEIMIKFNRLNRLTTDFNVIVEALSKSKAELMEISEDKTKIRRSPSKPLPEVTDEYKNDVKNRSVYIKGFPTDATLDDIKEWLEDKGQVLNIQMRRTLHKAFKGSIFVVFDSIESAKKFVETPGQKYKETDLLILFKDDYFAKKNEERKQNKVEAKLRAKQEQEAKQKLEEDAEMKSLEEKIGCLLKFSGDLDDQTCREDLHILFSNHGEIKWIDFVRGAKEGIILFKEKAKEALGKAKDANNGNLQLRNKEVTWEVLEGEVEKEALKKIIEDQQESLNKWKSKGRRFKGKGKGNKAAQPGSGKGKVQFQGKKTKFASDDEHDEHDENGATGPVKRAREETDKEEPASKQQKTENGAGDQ

[2] = biological target: T1, Lupus La protein (La); test: as above; conditions: protein: recombinant; tags: N-terminal 6xHis; label: 5' IRDye800CW; remark: listed apart in the source

With UGGAGUGUGACAAUGGUGUUUG (ssRNA) [miR-122-5p WT] the Kd [1] was 4.8 nM.

ACACGUGUGACAAUGGUGUUUG (ssRNA) [miR-122 5'mut] was tested, and the binding signal [2] was ~10 fold lower affinity than WT.

For UGGAGUGUGACAAUGGUGAAAG (ssRNA) [miR-122 3'mut], the Kd [1] was 538 nM.
